Experimental data from the RNAGym collection of RNA variant scans (doi:10.1093/molbev/msab373).

B1: Azoarcus group I ribozyme (parent)
chain: GUGCCUUGCGCCGGGAAACCACGCAAGGGAUGGUGUCAAAUUCGGCGAAACCUAAGCGCCCGCCCGGGCGUAUGGCAACGCCGAGCCAAGCUUCGGCGCCUGCGCCGAUGAAGGUGUAGAGACUAGACGGCACCCACCUAAGGCAAACGCUAUGGUGAAGGCAUAGUCCAGGGAGUGGCGAAAGUCACACAAACCGG

Variants of: B1
Assay: reverse-splicing fitness (ratio to wild type); higher = more active; in vitro selection; Mg2+ level not given
Outline: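 An in vitro group I ribozyme library with randomized positions was T7-transcribed and gel-purified. In triplicate, 10 pmol RNA in EPPS pH 7.5 was reacted with 50 pmoles of a 30-nt RNA substrate for 1 h at 37 °C across several added MgCl2 levels (1–48 mM), then stopped with EDTA. Products were reverse transcribed from a substrate-complementary primer, PCR-amplified and sequenced (HiSeq 4000). Fitness is a variant's read proportion after selection over that before, normalised to wild type.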

Going from A111G A120G A145G C169U U176C to A111G A120G A145G C169U U176A, the reverse-splicing fitness falls from 0.0954 to 0.0849.

Compared with A111G A120C A145U C150U C169U U176G, A111G A120C A145U C150U C169U U176A is higher in reverse-splicing fitness: 0.00606 for the first, 0.0423 for the second.

First: A111G A120C A145U C150U C169U U176C
Second: A111G A120G A145G C150G C169U U176C
The reverse-splicing fitness of the first is higher: 0.051 for the first, 0.0152 for the second.

First: A111G A120G A145G C150G C169U U176G
Second: A111G A120G A145G C150G C169U U176A
The reverse-splicing fitness of the first is lower: 0.00654 for the first, 0.012 for the second.

Going from A111G A120C C169U U176C to A111G A120C C169U U176G, the reverse-splicing fitness falls from 0.0857 to 0.00675.

First: A111G A120C C169U U176A
Second: A111G A120C A145G C150U U176G
The reverse-splicing fitness of the first is higher: 0.0684 for the first, 0.0682 for the second.

Going from A111G A120C A145G C150U U176C to A111G A120G A145C C150G C169A U176G, the reverse-splicing fitness falls from 0.316 to 0.00453.

Compared with A111G A120G A145C C150G C169A U176A, A111G A120G A145C C150G C169A U176C is higher in reverse-splicing fitness: 0.00837 for the first, 0.00969 for the second.

Going from A111G A120G to A111G A120C A145U C150U C169U, the reverse-splicing fitness falls from 0.3 to 0.173.

Compared with A111G A120C A145U C150U C169G, A111G A120C A145U C150U C169A is higher in reverse-splicing fitness: 0.0111 for the first, 0.013 for the second.

Going from A111G A120G A145G C169U to A111G A120G A145G C169G, the reverse-splicing fitness rises from 0.252 to 0.329.

Going from A111G A120G A145G C169A to A111G A120C A145U C150A, the reverse-splicing fitness falls from 0.188 to 0.111.

Compared with A111G A120C A145U C150U, A111G A120C A145U C150G is lower in reverse-splicing fitness: 0.579 for the first, 0.12 for the second.

Compared with A111G A120C A145U C150A C169A U176C, A111G A120C A145U C150A C169A U176A is higher in reverse-splicing fitness: 0.00676 for the first, 0.0107 for the second.

Going from A111G A120C A145U C150A C169A U176G to A111G A120G A145U C150G U176C, the reverse-splicing fitness rises from 0.00401 to 0.0217.

Compared with A111G A120G A145U C150G U176A, A111G A120G A145U C150G U176G is lower in reverse-splicing fitness: 0.0126 for the first, 0.00354 for the second.

Going from A111G A120C A145U C150A C169G U176G to A111G A120C A145U C150A C169G U176A, the reverse-splicing fitness rises from 0.00393 to 0.0144.

Compared with A111G A120C A145U C150A C169G U176C, A111G A120C A145U C150U C169A U176G is lower in reverse-splicing fitness: 0.011 for the first, 0.00393 for the second.

First: A111G A120C A145U C150U C169A U176A
Second: A111G A120C A145U C150U C169A U176C
The reverse-splicing fitness of the first is higher: 0.0122 for the first, 0.00821 for the second.

Compared with A111G A120G A145G C169G U176A, A111G A120G A145G C169G U176G is lower in reverse-splicing fitness: 0.0887 for the first, 0.00622 for the second.

Going from A111G A120G A145G C169G U176C to A111G A120G A145U C150A, the reverse-splicing fitness falls from 0.134 to 0.0301.

Compared with A111G A120G A145U C150U, A111G A120G A145U C150G is lower in reverse-splicing fitness: 0.19 for the first, 0.0319 for the second.

Compared with A111G A120C C150A U176C, A111G A120C C150A U176G is lower in reverse-splicing fitness: 0.0799 for the first, 0.0222 for the second.

Going from A111G A120C C150A U176A to A111G A120C C150U C169G U176A, the reverse-splicing fitness falls from 0.0735 to 0.0207.

Compared with A111G A120C C150U C169G U176C, A111G A120C C150U C169G U176G is lower in reverse-splicing fitness: 0.0169 for the first, 0.00459 for the second.

First: A111G A120G A145G C150G U176A
Second: A111G A120G A145G C150G U176C
The reverse-splicing fitness of the first is lower: 0.0132 for the first, 0.0227 for the second.

First: A111G A120G A145G C150G U176G
Second: A111G A120C A145G C169G
The reverse-splicing fitness of the first is lower: 0.00619 for the first, 0.0121 for the second.

Going from A111G A120C A145G C169U to A111G A120C A145G C169A, the reverse-splicing fitness falls from 0.254 to 0.0165.

Going from A111G A120G A145C C150G U176C to A111G A120G A145C C150G U176G, the reverse-splicing fitness falls from 0.0228 to 0.00289.

First: A111G A120G A145C C150G U176A
Second: A111G A120C C150G U176G
The reverse-splicing fitness of the first is higher: 0.014 for the first, 0.00371 for the second.

First: A111G A120C C150G U176A
Second: A111G A120C C150G U176C
The reverse-splicing fitness of the first is lower: 0.0119 for the first, 0.036 for the second.

Compared with A111G A120C A145U C150A C169U U176G, A111G A120C A145U C150A C169U U176A is higher in reverse-splicing fitness: 0.00505 for the first, 0.0204 for the second.

Going from A111G A120C A145U C150A C169U U176C to A111G A120G A145C C150U C169G U176C, the reverse-splicing fitness rises from 0.0177 to 0.036.

Going from A111G A120G A145C C150U C169G U176G to A111G A120G A145C C150U C169G U176A, the reverse-splicing fitness rises from 0.00498 to 0.0412.

Going from A111G A120G A145C C169G U176C to A111G A120G A145C C169G U176A, the reverse-splicing fitness falls from 0.0984 to 0.079.

Compared with A111G A120G A145C C169G U176G, A111G A120C C150G C169G is higher in reverse-splicing fitness: 0.00658 for the first, 0.0068 for the second.

Going from A111G A120C C150G C169A to A111G A120C C150G C169U, the reverse-splicing fitness rises from 0.00889 to 0.0262.

Going from A111G A120C C169A U176C to A111G A120C C169A U176A, the reverse-splicing fitness falls from 0.0167 to 0.0147.

Compared with A111G A120C C169A U176G, A111G A120G A145C C150U C169A U176C is higher in reverse-splicing fitness: 0.00421 for the first, 0.0168 for the second.

Going from A111G A120G A145C C150U C169A U176A to A111G A120G A145C C150U C169A U176G, the reverse-splicing fitness falls from 0.0171 to 0.00411.

Compared with A111G A120C C150A C169G U176G, A111G A120C C150A C169G U176C is higher in reverse-splicing fitness: 0.00513 for the first, 0.0196 for the second.

Work on A111G A120C C150A C169G U176A yielded a reverse-splicing fitness of 0.0214.
